Data from US20090036380A1, “Composition And Method For Brain Tumor Therapy” (Yeda Research and Development Co., Ltd., priority 2006, published 2009).

Molecular target: EGFR-Flag (UniProt P00533)
Test: cell-based or functional assay

HA-Karet (full-length mouse Karet with N-terminal haemagglutinin tag), sequence (Q8K2Y9 whole entry): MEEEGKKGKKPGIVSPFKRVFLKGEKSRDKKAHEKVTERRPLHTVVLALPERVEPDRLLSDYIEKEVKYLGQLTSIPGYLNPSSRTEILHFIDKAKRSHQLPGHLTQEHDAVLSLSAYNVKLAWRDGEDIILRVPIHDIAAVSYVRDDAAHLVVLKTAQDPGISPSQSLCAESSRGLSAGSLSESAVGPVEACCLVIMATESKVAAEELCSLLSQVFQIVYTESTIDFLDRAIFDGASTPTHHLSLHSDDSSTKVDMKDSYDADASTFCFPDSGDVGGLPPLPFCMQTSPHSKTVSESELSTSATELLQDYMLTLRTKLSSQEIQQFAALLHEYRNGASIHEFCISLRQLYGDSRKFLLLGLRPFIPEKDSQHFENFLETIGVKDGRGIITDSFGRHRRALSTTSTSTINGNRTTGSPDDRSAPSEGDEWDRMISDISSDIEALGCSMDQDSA

HA-Karet (full-length mouse Karet with N-terminal haemagglutinin tag) (from UniProt Q8K2Y9 1-453)
decrease in cell viability, Hek cells co-transfected with EGFR and Karet (XTT): 40%
